# Source: doi:10.1101/2021.06.28.450235
# Molecular target: CaCl2-washed photosystem II complex (T. elongatus | T. elongatus (endogenous)) (UniProt Q8DIF8)
# Assay: native gel or EMSA
substance,measurement,value
CaCl2-washed photosystem II complex (from UniProt Q8DIF8 1-461; P0A444 1-344; Q8DIQ1 1-510),stoichiometry N,2
